Source: US20210395340A1 (KINDRED BIOSCIENCES, published 2021)

T1: canine IL13 with C-terminal poly-His tag (produced in 293 cells) (canine, UniProt Q9N0W9 19-131)
T1 sequence: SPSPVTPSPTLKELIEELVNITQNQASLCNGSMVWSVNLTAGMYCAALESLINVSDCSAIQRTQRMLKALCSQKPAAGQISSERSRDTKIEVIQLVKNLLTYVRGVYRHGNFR

T2: canine IL4 (Sino Biological Inc, Cat #70021-DNAE-5) (canine, UniProt O77762 25-132, limits assumed)
T2 sequence (looked up): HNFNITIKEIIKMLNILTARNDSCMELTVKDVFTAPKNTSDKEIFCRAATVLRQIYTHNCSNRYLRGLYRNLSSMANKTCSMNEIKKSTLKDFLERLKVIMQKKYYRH


How the values were obtained:
[1] = target: T1, canine IL13 with C-terminal poly-His …; assay: BLI (Octet)
[2] = target: T2, canine IL4 (Sino Biological Inc, Cat …); assay: cell-based or functional assay

| Binder | binding result [1] | TF1 cell proliferation assay (CellTiter-Glo luminescence), IC50 [2] |
| --- | --- | --- |
| canine IL13RECD-IL4RECD-IgGB Fc (Fc fusion, also called canine IL13RECD-IL4RECD-Fc; IL13R ECD/IL4R ECD contiguous polypeptide) TETQPPVTNLSVSVENLCTVIWTWDPPEGASPNCTLRYFSHFDNKQDKKIAPETHRSKEVPLNERICLQVGSQCSTNESDNPSILVEKCTPPPEGDPESAVTELQCVWHNLSYMKCTWLPGRNTSPDTNYTLYYWHSSLGKILQCEDIYREGQHIGCSFALTNLKDSSFEQHSVQIVVKDNAGKIRPSFNIVPLTSHVKPDPPHIKRLFFQNGNLYVQWKNPQNFYSRCLSYQVEVNNSQTETNDIFYVEEAKCQNSEFEGNLEGTICFMVPGVLPDTLNTVRIRVRTNKLCYEDDKLWSNWSQAMSIGENTDPTGGGSGSGSVKVLHEPSCFSDYISTSVCQWKMDHPTNCSAELRLSYQLDFMGSENHTCVPENREDSVCVCSMPIDDAVEADVYQLDLWAGQQLLWSGSFQPSKHVKPRTPGNLTVHPNISHTWLLMWTNPYPTENHLHSELTYMVNVSNDNDPEDFKVYNVTYMGPTLRLAASTLKSGASYSARVRAWAQTYNSTWSDWSPSTTWLNYYEPKRENGRVPRPPDCPKCPAPEMLGGPSVFIFPPKPKDTLLIARTPEVTCVVVDLDPEDPEVQISWFVDGKQMQTAKTQPREEQFNGTYRVVSVLPIGHQDWLKGKQFTCKVNNKALPSPIERTISKARGQAHQPSVYVLPPSREELSKNTVSLTCLIKDFFPPDIDVEWQSNGQQEPESKYRTTPPQLDEDGSYFLYSKLSVDKSRWQRGDTFICAVMHEALHNHYTQESLSHSPGK | binds | – |
| canine IL4RECD-IL13RECD-IgGB Fc (Fc fusion, The IL4R ECD precedes the IL13R ECD, followed by canine IgG-B Fc; also called canine IL4RECD-IL13RECD-Fc; SINK) SGSVKVLHEPSCFSDYISTSVCQWKMDHPTNCSAELRLSYQLDFMGSENHTCVPENREDSVCVCSMPIDDAVEADVYQLDLWAGQQLLWSGSFQPSKHVKPRTPGNLTVHPNISHTWLLMWTNPYPTENHLHSELTYMVNVSNDNDPEDFKVYNVTYMGPTLRLAASTLKSGASYSARVRAWAQTYNSTWSDWSPSTTWLNYYEPGGGSGTETQPPVTNLSVSVENLCTVIWTWDPPEGASPNCTLRYFSHFDNKQDKKIAPETHRSKEVPLNERICLQVGSQCSTNESDNPSILVEKCTPPPEGDPESAVTELQCVWHNLSYMKCTWLPGRNTSPDTNYTLYYWHSSLGKILQCEDIYREGQHIGCSFALTNLKDSSFEQHSVQIVVKDNAGKIRPSFNIVPLTSHVKPDPPHIKRLFFQNGNLYVQWKNPQNFYSRCLSYQVEVNNSQTETNDIFYVEEAKCQNSEFEGNLEGTICFMVPGVLPDTLNTVRIRVRTNKLCYEDDKLWSNWSQAMSIGENTDPTPKRENGRVPRPPDCPKCPAPEMLGGPSVFIFPPKPKDTLLIARTPEVTCVVVDLDPEDPEVQISWFVDGKQMQTAKTQPREEQFNGTYRVVSVLPIGHQDWLKGKQFTCKVNNKALPSPIERTISKARGQAHQPSVYVLPPSREELSKNTVSLTCLIKDFFPPDIDVEWQSNGQQEPESKYRTTPPQLDEDGSYFLYSKLSVDKSRWQRGDTFICAVMHEALHNHYTQESLSHSPGK | binds | 2 nM |
